Assay results published in PMC12386762.

Biological target: Escherichia coli RecA (Escherichia coli) (UniProt P0A7G6)
Sequence (P0A7G6 whole entry): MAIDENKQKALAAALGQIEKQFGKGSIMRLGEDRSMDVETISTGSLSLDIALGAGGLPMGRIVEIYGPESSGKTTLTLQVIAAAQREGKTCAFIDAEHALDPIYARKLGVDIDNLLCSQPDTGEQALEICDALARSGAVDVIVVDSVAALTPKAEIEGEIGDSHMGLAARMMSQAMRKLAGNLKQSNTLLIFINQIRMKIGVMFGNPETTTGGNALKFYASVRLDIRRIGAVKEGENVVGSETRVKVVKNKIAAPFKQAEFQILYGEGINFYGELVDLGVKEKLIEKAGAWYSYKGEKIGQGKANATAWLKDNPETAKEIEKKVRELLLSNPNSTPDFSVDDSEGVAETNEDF

activation of RecAEco (5 uM) dATP hydrolysis on (dT)21 by 0.3 uM DprABsu, against RecAEco alone: 7 to 8 fold
B1: Bacillus subtilis DprA (natural protein)
chain: MDQAAVCLTICRINQLLSPSLLLKWWKADPSMSLTSPVLQTVTRDQIKAAALKNEIEQFYPKLPRVLAAYREQGINTIPISSKQYPFWLKSIYDPPAVLFAKGDMTLLSKGRKIGIVGTRNPTAYGKQVVNHLTKEICRKGWVIVSGLASGIDGMSHAASIKAKGRTIGVIAGGFQHIYPRENLQLADHMAKHHILLSEHPPETKPQKWHFPMRNRIISGLSEGVIVVQGKEKSGSLITAYQALEQGREVFAVPGSLFDPYAGGPIKLIQQGAKAIWSAEDIFEELPERNVQYTEPF
